Consider two molecules from patent US20230049152A1 (Genentech, published 2023).

Positions count from the first letter of the chain named.

One experiment concerns the target T1, S8A.
T1 construct: single alanine mutant of hCCR8; also called hCCR8 S8A
T1 receptor chain: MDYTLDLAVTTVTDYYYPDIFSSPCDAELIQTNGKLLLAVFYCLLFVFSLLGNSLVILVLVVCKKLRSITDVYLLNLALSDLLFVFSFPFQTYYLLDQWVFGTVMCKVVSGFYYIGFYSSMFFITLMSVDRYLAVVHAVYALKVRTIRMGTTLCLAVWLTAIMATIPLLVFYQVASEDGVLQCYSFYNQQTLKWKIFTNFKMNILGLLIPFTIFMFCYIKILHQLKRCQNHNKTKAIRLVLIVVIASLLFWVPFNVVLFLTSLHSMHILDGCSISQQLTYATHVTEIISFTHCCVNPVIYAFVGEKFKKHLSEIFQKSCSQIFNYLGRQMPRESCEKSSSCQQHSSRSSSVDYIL
Put plainly: flow cytometry, HEK293 transfected with hCCR8 S8A with C-terminal FLAG; sheet prints [huCCR8]=0.02 ug/ml. On the technique in general: Flow cytometry measures light scatter and fluorescence of single cells or particles in a stream.

The next experiment concerns the target T2, V12A.
T2 construct: single alanine mutant of hCCR8; also called hCCR8 V12A
T2 receptor chain: T1 receptor chain with A8S, V12A
Put plainly: flow cytometry, HEK293 transfected with hCCR8 V12A with C-terminal FLAG; sheet prints [huCCR8]=0.02 ug/ml.

For the next experiment, the target named is T3, S22A.
T3 construct: single alanine mutant of hCCR8; also called hCCR8 S22A
T3 receptor chain: T1 receptor chain with A8S, S22A
Put plainly: flow cytometry, HEK293 transfected with hCCR8 S22A with C-terminal FLAG; sheet prints [huCCR8]=0.02 ug/ml.

The next experiment concerns the target T4, Y17A.
T4 construct: single alanine mutant of hCCR8; also called hCCR8 Y17A
T4 receptor chain: T1 receptor chain with A8S, Y17A
Put plainly: flow cytometry, HEK293 transfected with hCCR8 Y17A with C-terminal FLAG; sheet prints [huCCR8]=0.02 ug/ml. The procedure:
FIGS. 16A-16B depict the epitope maps for hu.Ab5.H13L1 (FIG. 16A) and hu.Ab4.H12L3 (FIG. 16B) mAbs.
To epitope map fucosylated hu.Ab5.H13L1, the binding to alanine point mutations in human CCR8 was analyzed by flow cytometry.

The target of the next experiment is human CCR8 (human, UniProt P51685 1-355). The experiment can be described thus: cell-based or functional assay.

B1: hu.Ab5.H13L1 (antibody, human IgG1, kappa)
heavy: not shown
light: DIQVTQSPSSLSASVGDRVTITCQASENIANALAWYQQKPGKPPKFLIYGASNLASGVPSRFSGSGSGTDFTFTISSLQPEDIATYYCQQAYYGNSFVEGTFGGGTKVEIKRTVAAPSVFIFPPSDEQLKSGTASVVCLLNNFYPREAKVQWKVDNALQSGNSQESVTEQDSKDSTYSLSSTLTLSKADYEKHKVYACEVTHQGLSSPVTKSFNRGEC
notes: fucosylated human IgG1; also called Ab5 variant
Regarding B1, the binding result with S8A, in the experiment with V12A, with S22A and with Y17A was “binds” throughout.

B2: hu.Ab4.H1L1 (antibody, human IgG1, kappa)
heavy: not shown
light: DYQMTQSPSSLSASVGDRVTITCQASQSISSYLSWYQQKPGKRPKLLIYKASTLASGVPSRFSGSGSGTDFTLTISSLQPEDFATYYCQQGYTSSNIDNIFGGGTKVEIKRTVAAPSVFIFPPSDEQLKSGTASVVCLLNNFYPREAKVQWKVDNALQSGNSQESVTEQDSKDSTYSLSSTLTLSKADYEKHKVYACEVTHQGLSSPVTKSFNRGEC
notes: also called hu.Ab4.H1Ll
With B2, in the experiment with human CCR8, the “CCL1 blocking potency IC50, Ca2+ influx” value was found to be 57.9 nM.
